Measured values from the supplement of paper PMC12042874.
± gives the uncertainty stated by the source.

test: amyloid nucleation score (Sup35N fusion, yeast selection) (log enrichment); library NNK2; higher = more nucleation; inactive = no reads after selection
Outline: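 The nucleation score is the log enrichment of output over input reads, calculated with DiMSum and centred on the mode score of non-aggregating sequences. Sequences with under 100 input reads were excluded. Reads came from Illumina sequencing of plasmid inserts from psi-negative yeast expressing Sup35N fused to peptides of 20 random codons, induced 24 hours with 100 μM copper sulfate and grown 7 days at 30°C without adenine and uracil.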

Substance	amyloid nucleation score
SYVFAPWFLVILPKSISMD	4.58 ± 0.079
SYVGMFRTLDVKLRLNKCGY	-0.038 ± 1.1
SYYFLLLFVQT	-0.017 ± 0.76
SYYQCCSG	3.15 ± 0.14
TALFGISMVCSGRG	-0.583 ± 1.1
TAMEVPHRIWLR	-0.305 ± 1.1
TAQILLSTGSVLHLMLGGSP	3.02 ± 0.088
TAWSMNVHVSANVSTCRPLR	1.87 ± 0.2
TCARSVYDNLSLINLTRG	1.73 ± 0.1
TCDWLKAFIAWF	1.53 ± 0.3
TCGDGPATYTQT	0.132 ± 0.38
TCGLSIVDYWSLR	-0.99 ± 1.1
TCGTVSNSRASRQFESSSNA	0.633 ± 0.18
TCIFVNDFSMSGWDCMLFY	4.4 ± 0.062
TCILMLCQECVCTF	9.809 ± 0.051
TCLGSRWLT	0.653 ± 0.33
TCLYP	-0.707 ± 0.55
TCTQPFLVGCVERSLYES	-0.317 ± 0.28
TCYRSDRPIRRRVAFALTEG	1.04 ± 0.41
TCYTKPLNEYYE	0.011 ± 0.56
TDFFCLTIFFNVEHVISKCI	2.14 ± 0.17
TDISQEGPVNIL	inactive
TDKKACNLNDANVS	-0.014 ± 0.76
TDLASKAS	-0.194 ± 0.48
TDLTQF	-0.375 ± 1.1

Substance	amyloid nucleation score
TDLWFRLATRCNDNDAFFL	-0.981 ± 1.1
TDSAFLCHIAWTPFTVH	0.866 ± 0.48
TEAFKGLSLS	0.184 ± 0.49
TELVWLPWTRFCFGRNYRG	0.101 ± 0.35
TFAVFSYLRFIATNSGNIKA	-0.606 ± 0.48
TFDWKTSKPYANKPLRFETS	0.284 ± 0.34
TFFYCGPRKLFYKI	-0.387 ± 1.1
TFHFQTRLCYLALYDHAIYA	-0.242 ± 0.79
TFIFWGTAELVNNNLGLRC	-0.479 ± 0.48
TFKILLRCGNNLFGSKAFDM	3.63 ± 0.05
TFKSNLV	0.092 ± 0.17
TFLSGLCIAACSIMGFNQSS	-1.6 ± 0.78
TFLVLLRVMVWVV	0.648 ± 0.6
TFNACNK	0.349 ± 0.18
TGFGLMHGLAGKCCLRFFIT	-0.116 ± 0.35
TGGRF	0.264 ± 0.8
TGKYICRW	-0.843 ± 0.38
TGLCHPIGLPDRFRYIIRSL	-0.789 ± 0.55
TGLVFVLMCKSCQWFFREML	-0.948 ± 0.42
TGLVVDCLAYRDCSVKQDRA	0.582 ± 0.34
TGSVREYCGEVPWRLCDDRV	0.244 ± 0.62
TGTAVG	3.23 ± 0.073
TGVLCGSYFFWLF	5.15 ± 0.058
TGVYRWSEMSMVMFFFHVEC	-0.226 ± 0.63
TGWCGL	5.54 ± 0.066

Substance	amyloid nucleation score
TGWNDATRY	-0.467 ± 0.49
TGWTFWGGCRWM	4.57 ± 0.12
THCKGIYLSCMTSDFVHSYY	inactive
THLHCCYRETISDP	0.175 ± 0.33
TIATPHCVYDSCGCSVVSSV	0.176 ± 0.56
TIFFRCHWIRGLLVHLMF	inactive
TIGGEASVPRRMPLYTLQCE	6.03 ± 0.088
TIGPKFLLIIKMRCLWMNEE	0.105 ± 1.1
TIGRSFYELPFYGAILFWMR	1.45 ± 0.21
TIIRRDSLESQRRHCPMVVV	0.351 ± 0.64
TISMEVEYCV	-0.1 ± 1
TIYVRQ	-1.4 ± 1.1
TKEHYYR	0.048 ± 0.5
TKFVWDQNLVSSLINCGQSL	-0.841 ± 1.1
TKGFVTGVGGRSLIIVGCGA	0.664 ± 0.51
TKICWGSCRHLDLAFFLFLY	inactive
TKRMLERVTFFVHWCWLWSV	1.09 ± 0.15
TLDGLDS	-0.283 ± 0.25
TLDVIGIYLAGVGRFDGKSA	0.261 ± 0.49
TLFCIVMYCTKVETNFLVLH	6.45 ± 0.085
TLFNMMIYSL	1.09 ± 0.54
TLFSSRRYSVGERSQVTCLI	-0.492 ± 0.55
TLGNKFLKSWYMGASKTMCV	-1.78 ± 0.75
